Measured values reported in the nanobody polyreactivity screen of Harvey et al. (2022).

Assay: yeast display, Sf9 membrane polyspecificity reagent, FACS + sequencing; frameworks hold sequencing errors
In short: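 Sorting gates, low and high (top ~1%), were placed on anti-HA fluorescence to track expression and on streptavidin fluorescence to track reagent binding. A clone's polyreactivity label is taken from the gate it came out of. The reagent was 10% biotinylated, detergent-solubilized Sf9 membrane, applied for 1 hour at 4 °C to galactose-induced yeast display cells.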

Sequence | polyreactivity (PSR sort gate)
QVQLVESGGGLVQAGGSLRLSCAASGFTFKKYAMGWSRQAPGKERELVASITWSGGSTSYADSVKGRFTISRDNAKNSVYLQMNSLKPEDTAVFYCAAATFVYRLGYNRFDYWGQGTQVTVSS | high polyreactivity
QVQLVESGGGLVQAGGSLRLSCAASGRIFKRYTMGWYRQAPGQERELVAGITFSGGSTYYADSVKGRFTISRDNAKNTVYLQMNSLKPEDTAVYYCNARVPPQGWGPWKAFDYWGQGTQVTVSS | low polyreactivity
QVQLVESGGGLVQAGGSLRLSCAASGRIFYHYAMGWYRQAPGKERELVAAITSSGAGTYYADSVKGRFTISRDNAKNTVYLPMNSLKPEDTAVYYCAARRYAWLHSYDMYYWGHGTQVTVSS | high polyreactivity
QVQLVESGGGLVQAGGSLRLSCAASGSTFLFYAMGWYRQAPGKEREFVAAITWSGGSTYYADSVKGRFTISRDNAKNTVYLQMNSLKPEDTAVYYCNGYYVPTTGREFYFAFYYWGQGTQVTVSS | low polyreactivity
QVQLVESGGGLVQAGGSLRLSCAASGRIFRINAMGWYRQAPGKERELVASISRRGGNTYYADSVKGRFTISRDNAKNTVYLQMNSLKPEDTAVYYCAADTYQERTFDYWGQGTQVTVSS | low polyreactivity
QVQLVESGGGLVQAGGSLRLSCAASGIPFEGYAMGWYRQAPGKERELVAAIRSSGTSTYYADSVKGRFTISRDTAKNTVYLQMNSLKPEDTAVYYCNRARSSSRYDYWGQGTQVTVSS | low polyreactivity
QVQLVESGGGIVQAGGSLRLSCAASGFKFKFYVMGWYRQAPGKERELVAAISRNSVSTYYADSVKGRFTISRDNAKNTVYLQMNSLKPEDTAVYYCAAKGPRQYNHWGQGTQVTVSS | high polyreactivity
QVQLVESGGGLVQAGGSLRLSCAASGRISVVNARGWYRQAPGKERELVAAIRRASTNYADSVKGRFTISRDIAKNTVYLQMNILKPEDTAVYYCAARVYGINIFEYWGQGTQVTVSS | high polyreactivity
QVQLVDSGGGLVQAGGSLRLSCAASGITFYYYAMGWYRQAPGKERELVAAISSRGGSTYYADSVKGRFRISRDNAKNTVYLQMNSLNPEDTAVYYCAAGRVGAWTFDYWGEGTQVTVSS | high polyreactivity
QVQLVESGGGLVQAGGSLRLSCAASGSTFYRYAMGWYRQAPGKERELVASLTGSGGRTYYADSVKGRFTISRDNAKNTVYLQMNSLKPEDTAVYYCAARLYVRSVIGNAIVKYDYWGQGTQVTVSS | high polyreactivity
QVQLVESGGGLLQAGGSLLLSCAASGSNFAYYAMGWYRQAPGKERELVAAITRGAGRTFYADSVKGRFTISRDNAKNTVYLQMNSLKQEDTAVYYCAADVSGSKYDYWGQGTQVTVSS | high polyreactivity
QVQLVESGGGLVQAGGSLRLSCAASGRIFNYNAMGWYRQAPGKERELVAVITSGDSTNYADSVKGRFTISRDNAKNTVYLQMNSLKPEDTEVYYCAAEYYSIRYGPHSIEVYGMDYWGQGTQVTVSS | low polyreactivity
QVQLVESGGGLVQAGGSLRLSCAASGSTFYSYAMGWYRQAPGKERELVAAITSGGSTNYADSVKGRFTISRDNAKNTVYLQMNSLKPEDTAVYYCAAVVSTVDGMEYWGQGTQVTVSS | low polyreactivity
QVQLVESGGGLVHAGGSIRLSCAASGRIFGYYTMGWYRQAPGKERELVAAIRGNGGSTYYADSVKGLFTISRDNAKNTVYLQMHSLKPQDTAVYYCAATDISYRRVPYGRKKQYDYWGQGTQVTVSS | high polyreactivity
QVQLVESGGGLVQAGGSLRLSCAASGSIFESYAMGWYRQAPGKERELVADITYDGGITYYADSVKGRFTISRDNAKNTVYLQMNSLKPEDTADYYCNADSVQYTPPESDYWGQGTQVTVSS | low polyreactivity
QVQLVESGGGLVQAGGSLSFSCAAPGSIFPRYAMGWYRQAPGKERELVAAISRSGGSTYYADSVKGRFTISRDNAKNSVYLQMNSLKPEDTAVYYCATDKVSHRRYDYWGQGTQVTVSS | high polyreactivity

Sequence | polyreactivity (PSR sort gate)
QVQLVESGGGLVQPGGSLRLSCAASGRTLQRNAMVWYRQAPGKERELVAAISSSGGSTYYADSVKGRFTISRDNAKNTFYLQMNSLKPDDTAVYYCNTDSVYRYHYWGQGTEVTVSS | high polyreactivity
QVQLVESGGGLVQAGGSLRISCAASGSTFAGNAMGWYRQAPGKERELVAAIDSSTGSTYYADSVKGRFTISRDNAKNTVYLQMNSLKPEDTAVYYCNKTSFLVKLDYWGQGTQVTVSS | low polyreactivity
QVQLVESGGGLVQAGGSLSLSCAASGRIFRVYAMGWYRQAPGKERELVAAISSRGGRTYYADSVKGRFTISRDNAKNTVYLQMNSLKPEDTAVYYCAADGRSSSRATSRYDYWGQGTQVTVSS | high polyreactivity
QVQLVESGGGLVQAGGSLRLSCAASGFIFYYNAMGWYRPAPGTERELVATINNDGGSSTYADSVKGRFTISRDNAKNTVYLQMNSLKPEDTAVYYCNAEAFYFTHTVWIPYYYWGQGTQVTVLS | low polyreactivity
QVQLVESGGGLVQAGGTLRLSCAASGSTFTDYDMGWYRQAPGQERELVAAITSGGSTNYADSVKGRFTISRDNAKNTVYLQMNSLKPEDTAVYYCAAADADRKYDFWGQGTQVTVSS | low polyreactivity
QVQLVESGGGLVQARGSLRLSCAASGSTFYYYAMALSRQAPVKERELFASISDHGSTNYADSVKGRFTISRDNAKNTVFLQMNSMKPEDTAVYYCGAVWCLQFGSAWYQMGYWGQVTQVTVSS | low polyreactivity
QVQLVESGGGLVQAGGSLRLSCAASGRIFERYAMGWYRQAPGKERELVAGISISGGGTYYADSVKGRFTISRDIAKNTVYFQMNSLKPEDTAVYYCAATFPREEYGYWGQGTQVTVSS | low polyreactivity
QVQLVESGGVLVQAGGSLRLTCAASGFIFKIYAMGWYRQAPGKERELVARITRSGGSTYYADSVKGRFTNSRDNAKNTVYLQMNSLKPEDTAVYYCNAELFRYVRYEYWGQGTQVTVSS | high polyreactivity
QVQLVESGGGLVQAGGSLRLSCAASGSTFSGYAMGWYRQAPGKERELVAAINWNGGRTYYADSVKGRFTISRDNAKNTVYLQMYSLKPADTAVSYCNKQSPRGRSAVYKYDYWGQGTQVTVSS | high polyreactivity
QVQHVESGGGLVQAGGSLRLSCAASGSIFVPYALGWSRQAPGKEREFVAVISLRGSRTYYADSVKGRFTISRDNAKNTVYLQMNSLKPEDTAVYYCATTGYRLRQATRYDYRGQGTQVTVSS | high polyreactivity
QVQLVESGGGLVQAGGSLRLSCAASGFIFLPYAMGWYRQAPGKERELVAAITRGGRTYYADSVKGRFTISRDNAKNTVYLKMNSLKPEDTAVYYCAATTYLVWGYNYWGQGTQVTVSS | low polyreactivity
QVQIVESGGGLVQAGGSLRLSCAASGGIFAVNAMGWYRQAPGKERELVASITRTGGSTSYEDSVKGRFTISRDNAKNTVYLQMNSLKPEDTAVYYCAAGWQVVLSTNGMDYWGQGTQVTVSS | high polyreactivity
QVQLVESGGGLVQAGGSLRLSCAASGFIFRYYAMGWYRQAPGKERELVAAITSRGSSTYYADSVKGRFTISRDNAKNTVYLQMNSLKPEDTAVYYCAARLRGDYVRYDYWGQGTQVTVSS | high polyreactivity
QVQLVESGGGLVQAGGSLRLSCAASGFIFYRYAMGWYRQAPGKERELVAAISKSGSSTYYADSVKGRFTISRDNAKNTVYLQMNSLKPEDTAVYYCARDRQSRSLLEYDYWGQGTQVTVSS | low polyreactivity
QVQLVDSGGGLVQAGGSLRLSCAASGRIFRLYAMGWYRPAPGKERELVATITRSGVSTYYADSVKGRFTISRDNAKNTVYLQMNSLKPEDTAVYYCAVDRWGRYYATQYTFDYWGQGTQVTVSS | high polyreactivity
QVQLVESGGGLVQAGGSLRLSCAASGRIFGDYAMGGSRQAPGKERELVAVISVGGRTSYADSVKGRFTISRDNAKNTVYLQMNSLKPEDTAVYYCATRLSTRDGGYWGQGTQVTVSS | low polyreactivity
